Here are results for 2 molecules from patent US20250155401, “RAPID, SINGLE-STEP AND REAGENTLESS ELECTROCHEMICAL BIOSENSING METHODS, COMPOSITIONS AND DEVICES FOR NANOMOLAR DETECTION OF C-REACTIVE PROTEIN” (Advanced Biomedical Instrumentation Centre Limited, published 2025).

Data set [1] concerns the target T1, C-reactive protein (CRP) (UniProt P02741 P02741:19-224).
T1 sequence: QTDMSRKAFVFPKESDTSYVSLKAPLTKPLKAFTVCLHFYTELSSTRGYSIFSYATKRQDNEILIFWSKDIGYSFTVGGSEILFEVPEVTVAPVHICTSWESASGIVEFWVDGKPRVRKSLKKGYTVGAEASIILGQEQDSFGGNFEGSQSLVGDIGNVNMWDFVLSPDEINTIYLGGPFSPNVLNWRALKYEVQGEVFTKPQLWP
As to the kind of experiment: square wave voltammetry; no response up to 500 nM CRP in PBS with 1 mM BSA. Particulars: tags: abcam ab167710, HEK 293 expressed, >95% purity; chain copies: 5 (pentamer, stated); label: 3' methylene blue. Here is the method: Refer to FIGS. 3A-3E for the following descriptions. To assess specificity of the CRP-targeting aptamer, initial assays are conducted in PBS (1×) buffer supplemented with bovine serum albumin ‘BSA’. Albumin is fixed at a concentration of 1 mM to reflect slightly higher concentrations than those found in serum. Control sensors are prepared in the same fashion as with test sensors using an excised version of the CRP-targeting aptamer sequence without flanking primer regions (FIG. 3D). […] A Limit of detection ‘LOD’ of 105.4 pM is calculated using linear regression, using n=3 independently prepared sensors. […] Here, CRP concentration is reported in molar units and calculate values based on the pentameric isoform weight of 115-120 kDa, as is reported by the commercial supplier and elsewhere.

Data set [2] addresses T1, C-reactive protein (CRP). Put plainly: square wave voltammetry on gold SPE, Hill-Langmuir fit of 48-hour sensor re-use data; BSA-doped PBS with Mg, room temperature not stated. Particulars: tags: abcam ab167710, HEK 293 expressed, >95% purity; chain copies: 5 (pentamer, stated); label: 3' methylene blue. Here is the method:
Refer to FIGS. 4A-4D for the following descriptions. To assess reusability of the prepared aptasensors, dose-response assays are conducted in BSA doped PBS buffer 48 hours after initial testing. Magnesium is used to supplement PBS buffer to more closely match the ion content found in serum with observations showing little difference between results obtained from the initial screening assay. […] Despite these uncertainties, linear range observed for used sensors is broadly maintained. For used sensors, the LOD calculated from linear regression is shown to be approximately 363 pM which matched well with an LOD value of approx. 374 pM derived from non-linear regression fits to the Hill-Langmuir (dose response) function described in section 2.6. Non-Linear fitting is achieved with good fitting (adjusted R₂=0.99). […] Here, concentration is provided in molar units, calculated using the CRP pentameric isoform weight of 120 kDa.

Data set [3] has as its target bovine serum albumin (BSA) (Bos taurus, UniProt P02769 P02769:25-607). As to the kind of experiment: square wave voltammetry; no observable deviation in response, PBS. Particulars: tags: Sigma-Aldrich, lyophilized powder >96%; label: 3' methylene blue. As for the experimental part: (§1) The initial response spike is caused by injection of the analyte. Subsequent stabilisation of the response signal via this testing method occurs over 2-3 minutes. Crucially, significant concentrations of bovine serum albumin, and human serum albumin produce no observable deviation in response, confirming excellent selectivity against serum endogenous proteins that are well known to produce false positives in other sensors formats.

For data set [4], the target named is human serum albumin (HSA) (Homo sapiens, UniProt P02768 P02768:25-609). The data set is described as above. Particulars: label: 3' methylene blue. Here is the method: as §1
Sequence of human serum albumin (HSA) (P02768 25-609, one chain of several): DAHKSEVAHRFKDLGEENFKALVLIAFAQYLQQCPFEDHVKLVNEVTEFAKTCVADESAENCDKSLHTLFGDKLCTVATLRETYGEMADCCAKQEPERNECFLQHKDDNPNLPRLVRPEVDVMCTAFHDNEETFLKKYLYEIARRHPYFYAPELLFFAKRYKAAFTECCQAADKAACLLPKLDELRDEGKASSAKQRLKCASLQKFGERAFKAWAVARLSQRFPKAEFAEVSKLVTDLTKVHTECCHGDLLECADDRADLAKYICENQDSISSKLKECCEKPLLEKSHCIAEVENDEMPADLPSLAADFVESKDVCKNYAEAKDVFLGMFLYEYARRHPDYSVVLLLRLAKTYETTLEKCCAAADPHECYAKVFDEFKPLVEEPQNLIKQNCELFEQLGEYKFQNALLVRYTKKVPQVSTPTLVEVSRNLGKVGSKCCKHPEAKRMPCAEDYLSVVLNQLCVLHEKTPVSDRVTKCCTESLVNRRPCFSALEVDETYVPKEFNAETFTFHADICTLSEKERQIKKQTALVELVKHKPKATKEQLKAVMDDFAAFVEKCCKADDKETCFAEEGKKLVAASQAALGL

Sequence of bovine serum albumin (BSA) (P02769 25-607, one chain of several): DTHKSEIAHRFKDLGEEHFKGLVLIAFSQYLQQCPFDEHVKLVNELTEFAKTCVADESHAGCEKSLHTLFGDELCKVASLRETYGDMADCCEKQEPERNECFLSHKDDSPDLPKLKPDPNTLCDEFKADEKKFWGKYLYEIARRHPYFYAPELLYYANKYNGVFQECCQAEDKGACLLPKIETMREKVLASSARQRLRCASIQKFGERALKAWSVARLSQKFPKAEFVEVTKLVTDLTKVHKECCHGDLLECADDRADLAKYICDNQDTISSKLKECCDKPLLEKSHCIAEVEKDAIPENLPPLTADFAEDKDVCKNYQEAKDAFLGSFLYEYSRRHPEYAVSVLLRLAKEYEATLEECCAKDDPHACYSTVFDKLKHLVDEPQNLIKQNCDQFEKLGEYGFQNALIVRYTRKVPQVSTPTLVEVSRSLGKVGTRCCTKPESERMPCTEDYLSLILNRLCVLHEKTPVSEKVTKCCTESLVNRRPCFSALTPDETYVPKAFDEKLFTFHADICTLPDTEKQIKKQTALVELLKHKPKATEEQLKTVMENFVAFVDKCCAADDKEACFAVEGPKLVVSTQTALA

On to CGATGGGGGGGTATGATTTGATGTGGTTGTTGCATGATCG (ssDNA, 5' thiol modifier (C6-S-S), 3' methylene blue via C7 spacer) [CRP-targeting aptamer without flanking primer regions (control)], for which the binding result in data set [1] is “no binding”.

B1: CRP-targeting aptamer (ssDNA)
DNA: GGCAGGAAGACAAACACGATGGGGGGGTATGATTTGATGTGGTTGTTGCATGATCGTGGTCTGTGGTGCTGT
modifications: 5' thiol modifier (C6-S-S), 3' methylene blue via C7 spacer
The molecule B1 gave a dissociation constant Kd in data set [2] of 55.4 nM. Moreover, the binding result in data set [3] and in data set [4] was “no binding” in each case.

As usually defined, the Kd is the free concentration of one partner at which half of the binding sites on the other are occupied at equilibrium, for simple one-to-one binding. The low end stands for higher affinity, the high end for lower affinity.
